According to patent US20140322220A1 (Bayer, published 2014):
Blank lines part the entries; values can stand above or below the binder they belong to. Numbered stars: 1 amine (or outer) side, 2 acyl side, 3 side chain; on linkers, the order of the positions; unused ones are H or OH. Square brackets hold non-standard residues; d marks the D form. Ends that are not written are not given here. * marks the point of attachment. Biotin = O=C1N[C@H]2[C@H](CS[C@H]2CCCCC(=O)*)N1; Ttds = O=C(CCC(=O)[*:2])NCCCOCCOCCOCCCN[*:1]

Assays:
[1] = molecular target: T1, recombinant human FGFR2 (Met 1-Glu 377) with C-terminal polyhistidine tag (human, UniProt P21802 22-377); experiment: protein binding ELISA; against TPP-1403
T1 construct: The range is that of the expressed DNA and begins at Met 1; also called His-tagged FGFR2; recombinant human FGFR2-IIIc molecule
T1 sequence (P21802 22-377 limits assumed): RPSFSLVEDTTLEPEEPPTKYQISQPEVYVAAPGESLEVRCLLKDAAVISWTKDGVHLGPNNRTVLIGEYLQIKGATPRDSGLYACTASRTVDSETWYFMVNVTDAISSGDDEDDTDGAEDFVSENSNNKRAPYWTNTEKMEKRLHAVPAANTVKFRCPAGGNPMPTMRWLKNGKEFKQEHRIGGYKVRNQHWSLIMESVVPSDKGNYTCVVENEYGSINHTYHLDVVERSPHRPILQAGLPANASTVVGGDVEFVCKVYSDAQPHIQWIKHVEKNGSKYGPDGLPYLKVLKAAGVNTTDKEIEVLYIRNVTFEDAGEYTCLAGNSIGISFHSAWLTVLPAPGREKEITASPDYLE
Source text: (§1) Two different types of ELISA were used to determine the binding improvement of mutated variants: a) Peptide Binding ELISA: a synthetic peptide comprising the amino acid sequence of the epitope linked C-terminally to a biotinylated lysine […]-Ttds-Lys(Biotin) (peptide sequence derived from SEQ ID NO:63, synthesized by JPT Peptide Technology GmbH, Berlin, Germany), and b) Recombinant Protein Binding ELISA: recombinant human FGFR2 (DNA sequence of human FGFR2 (NP 000132.3) Met 1-Glu 377, fused with a polyhistidine tag at the C-terminus; #10824-1-1081-1, Sin θ Biological Inc., Beijing, China).
(§2) Briefly, in both ELISA formats MTP plates (384 well Maxisorp, Nunc) were coated with 20 μl, anti-human IgG Fc specific (#12136; sigma) at 2.2 μg/ml for 2.5 h at 37° C. in coating buffer (#121125 Candor Bioscience GmbH). […] Anti-FGFR2 variants were immobilized in concentrations of 0.035 μg/ml (peptide based assay) or 0.2 μg/ml (recombinant human FGFR2 protein based assay) in 10% Smart Block in PBST depending on the format and variants to be analyzed by incubation of 20 μl for one hour at 20-22° C. After one washing step using 50 μl PBST, 20 μl quadruplets of the antigen dilution series in 10% SmartBlock in PBST with a maximum concentration of 100 nM were added and incubated for 1 h at 20-22° C. and the washing step was repeated 3 times. For the detection of the biotinylated epitope peptide 20 μl of streptavidine/POD conjugate (# S5512, Sigma) in a 1:1000 dilution in 10% SmartBlock in PBST were applied for one hour at 20-22° C. For the detection of the recombinant FGFR2 protein 20 μl of anti-His/HRP conjugate (#71840, novagen) in a 1:10000 dilution in 10% SmartBlock in PBST were applied for one hour at 20-22° C. After 3 washing steps 20 μl of 10 μM amplex red substrate (# A12222, Invitrogen) in 50 mM Sodium hydrogen phosphate, pH 7.6, were added and the fluorescence signal was detected using a common fluorescence reader, e.g. Tecan M1000. EC50 values were evaluated by fitting the data (Sigmoida) dose-response, variable slope, bottom set to background; GraphPad Prism software).

[2] = molecular target: T1, recombinant human FGFR2 (Met 1-Glu 377) …; experiment: protein binding ELISA, antibody captured by anti-human IgG Fc, FGFR2-His titrated
Source text: as §1, §2

[3] = molecular target: T2, RPSFSLVEDTTLEPEG-Ttds-Lys(Biotin) (human); experiment: peptide binding ELISA, antibody captured by anti-human IgG Fc, biotinylated peptide titrated
T2 construct: Synthesized by JPT Peptide Technology
T2 peptide: RPSFSLVEDTTLEPEG[Ttds]K(Biotin)
Source text: as §1, §2

[4] = molecular target: T2, RPSFSLVEDTTLEPEG-Ttds-Lys(Biotin); experiment: peptide binding ELISA, antibody captured by anti-human IgG Fc, biotinylated peptide titrated; against TPP-1403
Source text: as §1
(§3) Briefly, in both ELISA formats MTP plates (384 well Maxisorp, Nunc) were coated with 20 μl, anti-human IgG Fc specific (#12136; sigma) at 2.2 μg/ml for 2.5 h at 37° C. in coating buffer (#121125 Candor Bioscience GmbH). […] Anti-FGFR2 variants were immobilized in concentrations of 0.035 μg/ml (peptide based assay) or 0.2 μg/ml (recombinant human FGFR2 protein based assay) in 10% Smart Block in PBST depending on the format and variants to be analyzed by incubation of 20 μl for one hour at 20-22° C. […] After 3 washing steps 20 μl of 10 μM amplex red substrate (# A12222, Invitrogen) in 50 mM Sodium hydrogen phosphate, pH 7.6, were added and the fluorescence signal was detected using a common fluorescence reader, e.g. Tecan M1000. […]

rat FGFR2 on RUCA cells = molecular target: T3, rat FGFR2 on RUCA cells (rat, UniProt F1LNW0 41-840); experiment: FACS, 5 ug/ml, RUCA cells
T3 construct: whole, on cells
Procedure: (§4) To determine the binding characteristics of the anti-FGFR2 antibodies on mouse, rat and human cancer cell lines, binding was tested by flow cytometry to a panel of cell lines. Adherent cells were washed twice with PBS (without Ca and Mg) and detached by enzyme-free PBS based cell dissociation buffer (Invitrogen). Cells were suspended at approximately 10⁵ cells/well in FACS buffer (PBS without Ca/Mg, Biochrom containing 3% FCS, Biochrom). Cells were centrifuged (250 g, 5 min, 4° C.) and supernatant discarded. Cell were resuspended in dilutions of the antibodies of interest (5 μg/ml in 80 μl if not indicated otherwise) in FACS buffer, and incubated on ice for 1 h. […] After incubation for 1 h on ice cells were again washed with cold FACS buffer, resuspended in 100 μl FACS buffer and analyzed by flow cytometry using a FACS-Array (BD Biosciences). Results are calculated as Geo Mean of the detection by the antibody of interest subtracted by background fluorescence as measured by detection with the secondary antibody alone.

[5] = molecular target: T4, mutated human FGFR2 on MFE-296 cells (human, UniProt P21802 22-821); experiment: FACS, 5 ug/ml, MFE296 cells
T4 construct: whole, on cells
T4 sequence (P21802 other isoform, or with tags, fused parts or gaps limits assumed, change not shown): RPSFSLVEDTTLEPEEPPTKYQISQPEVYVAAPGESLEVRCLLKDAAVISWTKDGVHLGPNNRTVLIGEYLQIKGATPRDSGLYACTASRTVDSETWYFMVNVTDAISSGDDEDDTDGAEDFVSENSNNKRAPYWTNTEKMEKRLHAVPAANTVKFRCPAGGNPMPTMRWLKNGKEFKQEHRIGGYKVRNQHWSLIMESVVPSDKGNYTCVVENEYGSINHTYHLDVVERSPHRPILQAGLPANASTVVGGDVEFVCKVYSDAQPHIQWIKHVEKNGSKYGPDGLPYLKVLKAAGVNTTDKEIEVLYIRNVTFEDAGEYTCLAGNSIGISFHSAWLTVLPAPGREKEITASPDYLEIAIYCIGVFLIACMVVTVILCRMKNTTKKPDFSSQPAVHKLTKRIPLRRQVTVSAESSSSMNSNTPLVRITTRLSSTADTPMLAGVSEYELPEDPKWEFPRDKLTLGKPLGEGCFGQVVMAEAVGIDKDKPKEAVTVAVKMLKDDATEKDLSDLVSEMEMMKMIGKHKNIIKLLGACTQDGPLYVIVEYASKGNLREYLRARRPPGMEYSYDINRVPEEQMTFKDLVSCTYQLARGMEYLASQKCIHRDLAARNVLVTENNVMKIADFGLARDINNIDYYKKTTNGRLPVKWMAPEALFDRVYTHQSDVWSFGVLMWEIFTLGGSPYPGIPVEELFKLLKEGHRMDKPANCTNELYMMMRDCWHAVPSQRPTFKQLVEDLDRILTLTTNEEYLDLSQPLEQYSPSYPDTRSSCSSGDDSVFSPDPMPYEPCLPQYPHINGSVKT
Procedure: as §4

[6] = molecular target: T2, RPSFSLVEDTTLEPEG-Ttds-Lys(Biotin); experiment: peptide binding ELISA; against TPP-1415
Source text: as §1, §3

[7] = molecular target: T1, recombinant human FGFR2 (Met 1-Glu 377) …; experiment: protein binding ELISA; against TPP-1415
Source text: as §1, §2

[8] = molecular target: T5, mutated human FGFR2 on AN3-CA cells (human, UniProt P21802 22-821); experiment: FACS, 5 ug/ml, AN3CA cells
T5 construct: whole, on cells; also called AN3-CA (DSMZ-ACC 267)
T5 sequence (P21802 other isoform, or with tags, fused parts or gaps limits assumed, change not shown): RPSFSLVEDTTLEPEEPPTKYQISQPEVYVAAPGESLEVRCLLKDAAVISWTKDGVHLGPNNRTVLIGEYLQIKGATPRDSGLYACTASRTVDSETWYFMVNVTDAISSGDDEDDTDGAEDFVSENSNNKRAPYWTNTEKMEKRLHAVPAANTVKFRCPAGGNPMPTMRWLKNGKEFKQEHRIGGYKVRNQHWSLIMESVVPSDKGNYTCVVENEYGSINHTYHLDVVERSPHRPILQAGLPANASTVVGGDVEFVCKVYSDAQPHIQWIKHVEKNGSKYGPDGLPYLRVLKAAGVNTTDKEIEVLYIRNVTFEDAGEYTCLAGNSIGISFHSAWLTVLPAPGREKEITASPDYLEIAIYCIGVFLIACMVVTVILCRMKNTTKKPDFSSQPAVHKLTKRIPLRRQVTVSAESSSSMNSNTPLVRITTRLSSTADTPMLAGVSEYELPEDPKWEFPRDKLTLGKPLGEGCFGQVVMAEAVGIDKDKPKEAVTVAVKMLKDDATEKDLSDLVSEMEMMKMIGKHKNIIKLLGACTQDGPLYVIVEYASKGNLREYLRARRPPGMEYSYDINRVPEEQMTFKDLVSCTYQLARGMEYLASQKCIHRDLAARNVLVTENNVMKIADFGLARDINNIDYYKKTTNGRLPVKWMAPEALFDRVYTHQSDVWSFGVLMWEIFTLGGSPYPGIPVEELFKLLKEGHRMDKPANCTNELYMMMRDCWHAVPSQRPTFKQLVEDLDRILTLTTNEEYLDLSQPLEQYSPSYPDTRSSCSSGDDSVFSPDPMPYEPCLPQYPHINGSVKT
Procedure: as §4

[9] = molecular target: T2, RPSFSLVEDTTLEPEG-Ttds-Lys(Biotin); experiment: peptide ELISA, IgG titration, anti-mouse IgG (Fc specific) POD detection

B1: TPP-1397 (antibody, human IgG1, lambda, V domains shown)
VH: EVQLLESGGGLVQPGGSLRLSCAASGFTFSSYAMSWVRQAPGKGLEWVSAISKSGGSTFYADSVKGRFTISRDNSKNTLYLQMNSLRAEDTAVYYCARVRYIWGEGDWFDPWGQGTLVTVSS
VL: AQSVLTQPPSASGTPGQRVTISCSGSSSNIGENYVSWYQQLPGTAPKLLIYENYKRSSGVPDRFSGSKSGTSASLAISGLRSEDEADYYCAAWDDSLNSWVFGGGTKLTVLG
notes: Matured variant of M048-D01
- fold EC50 reduction [1]: 40 fold
- EC50 [2]: 0.2 nM
- EC50 [3]: 0.004 nM
- fold EC50 reduction [4]: > 2300 fold

B2: M054-D03-hIgG1 (antibody, V domains shown)
VH: EVQLLESGGGLVQPGGSLRLSCAASGFTFSNYGMHWVRQAPGKGLEWVAVISYDGSNKYYADSVKGRFTISRDNSKNTLYLQMNSLRAEDTAVYYCAKETNDVPFDYWGQGTLVTVSS
VL: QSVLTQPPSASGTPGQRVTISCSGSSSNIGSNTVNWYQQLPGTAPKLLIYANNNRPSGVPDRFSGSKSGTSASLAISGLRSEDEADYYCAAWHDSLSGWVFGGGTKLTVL
notes: Human IgG1
- Geo Mean minus Geo Mean of secondary antibody alone (FACS) (rat FGFR2 on RUCA cells): 100 to 1000 geomean
- Geo Mean minus Geo Mean of secondary antibody alone (FACS) [5]: 100 to 1000 geomean

B3: TPP-1408 (antibody, human IgG1, lambda, V domains shown)
VH: EVQLLESGGGLVQPGGSLRLSCAASGFTFSHSGMHWVRQAPGKGLEWVAVISYDGSNKYYADSVKGRFTISRDNSKNTLYLQMNSLRAEDTAVYYCAREQPVYDFEYWGQGTLVTVSS
VL: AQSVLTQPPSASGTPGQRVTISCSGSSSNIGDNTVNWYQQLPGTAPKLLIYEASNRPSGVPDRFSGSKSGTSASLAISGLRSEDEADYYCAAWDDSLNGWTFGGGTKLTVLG
notes: Matured variant of M047-D08
- fold EC50 reduction [6]: > 4 fold
- fold signal [6]: 10 fold
- fold EC50 reduction [7]: 27 fold
- EC50 [2]: 0.29 nM
- EC50 [3]: 2.5 nM

B5: M048-D01-mIgG2a (antibody)
heavy: EVQLLESGGGLVQPGGSLRLSCAASGFTFSSYAMSWVRQAPGKGLEWVSAISGSGTSTYYADSVKGRFTISRDNSKNTLYLQMNSLRAEDTAVYYCARVRYNWNHGDWFDPWGQGTLVTVSSAKTTAPSVYPLAPVCGDTTGSSVTLGCLVKGYFPEPVTLTWNSGSLSSGVHTFPAVLQSDLYTLSSSVTVTSSTWPSQSITCNVAHPASSTKVDKKIEPRGPTIKPCPPCKCPAPNLLGGPSVFIFPPKIKDVLMISLSPIVTCVVVDVSEDDPDVQISWFVNNVEVHTAQTQTHREDYNSTLRVVSALPIQHQDWMSGKEFKCKVNNKDLPAPIERTISKPKGSVRAPQVYVLPPPEEEMTKKQVTLTCMVTDFMPEDIYVEWTNNGKTELNYKNTEPVLDSDGSYFMYSKLRVEKKNWVERNSYSCSVVHEGLHNHHTTKSFSRTPGK
VL: QSVLTQPPSASGTPGQRVTISCSGSSSNIGNNYVSWYQQLPGTAPKLLIYENYNRPAGVPDRFSGSKSGTSASLAISGLRSEDEADYYCSSWDDSLNYWVFGGGTKLTVL
notes: Murine IgG2a format of M048-D01
- EC50 [9]: ≤ 1 nM

B7: M054-A05-hIgG1 (antibody, V domains shown)
VH: EVQLLESGGGLVQPGGSLRLSCAASGFTFSNYGMYWVRQAPGKGLEWVAVISYDGTNKYYVDSVKGRFTISRDNSKNTLYLQMNSLRAEDTAVYYCAKDLPKWGGFDSWGQGTLVTVSS
VL: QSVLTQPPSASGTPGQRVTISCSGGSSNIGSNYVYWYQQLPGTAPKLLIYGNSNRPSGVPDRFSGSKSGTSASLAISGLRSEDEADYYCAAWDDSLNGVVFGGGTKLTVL
notes: Human IgG1
- Geo Mean minus Geo Mean of secondary antibody alone (FACS) [8]: 100 to 1000 geomean
- Geo Mean minus Geo Mean of secondary antibody alone (FACS) [5]: 1000 to 10000 geomean

More lines, now with the values ahead:

- Geo Mean minus Geo Mean of secondary antibody alone (FACS) (rat FGFR2 on RUCA cells): 100 to 1000 geomean
- Geo Mean minus Geo Mean of secondary antibody alone (FACS) [8]: 100 to 1000 geomean
- Geo Mean minus Geo Mean of secondary antibody alone (FACS) [5]: 1000 to 10000 geomean
B4: M017-B02-hIgG1 (antibody, V domains shown)
VH: EVQLLESGGGLVQPGGSLRLSCAASGFTFRTSGMHWVRQAPGKGLEWVAVISYDGSNKYYADSVKGRFTISRDNSKNTLYLQMNSLRAEDTAVYYCARESPGYDFEYWGQGTLVTVSS
VL: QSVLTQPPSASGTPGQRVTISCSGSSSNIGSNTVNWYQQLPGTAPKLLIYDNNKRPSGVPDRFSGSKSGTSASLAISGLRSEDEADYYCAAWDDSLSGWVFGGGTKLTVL
notes: Human IgG1

- Geo Mean minus Geo Mean of secondary antibody alone (FACS) (rat FGFR2 on RUCA cells): 100 to 1000 geomean
- Geo Mean minus Geo Mean of secondary antibody alone (FACS) [5]: 100 to 1000 geomean
B6: M021-H02-hIgG1 (antibody, V domains shown)
VH: EVQLLESGGGLVQPGGSLRLSCAASGFTFSNYGIHWVRQAPGKGLEWVAVISYDGSNKYYADSVKGRFTISRDNSKNTLYLQMNSLRAEDTAMYYCARDSSSAEDYWGQGTLVTVSS
VL: QSVLTQPPSASGTPGQRVTISCSGSSSNTGSNTVNWYQQLPGTAPKLLIYRNNQRPSGVPDRFSGSKSGTSASLAISGLRSEDEADYYCETWDSNTRGVVFGGGTKLTVL
notes: Human IgG1; also called M021-1-102-hIgG1; M021-1-102
